The chains are these.
B1: Spt6-3XFLAG (wild type) [S. cerevisiae (endogenous in strain S288c)] / Spn1 (wild type) [S. cerevisiae (endogenous in strain S288c)] (parent)
chain 1: MEETGDSKLVPRDEEEIVNDNDETKAPSEEEEGEDVFDSSEEDEDIDEDEDEARKVQEGFIVNDDDENEDPGTSISKKRRKHKRREREEDDRLSEDDLDLLMENAGVERTKASSSSGKFKRLKRVGDEGNAAESESDNVAASRQDSTSKLEDFFSEDEEEEESGLRNGRNNEYGRDEEDHENRNRTADKGGILDELDDFIEDDEFSDEDDETRQRRIQEKKLLREQSIKQPTQITGLSSDKIDEMYDIFGDGHDYDWALEIENEELENGNDNNEAEEEEIDEETGAIKSTKKKISLQDIYDLEDLKKNLMTEGDMKIRKTDIPERYQELRAGITDYGNMSSEDQELERNWIAEKISVDKNFDANYDLTEFKEAIGNAIKFITKENLEVPFIYAYRRNYISSREKDGFLLTEDDLWDIVSLDIEFHSLVNKKDYVQRFYAELHIDDPIVTEYFKNQNTASIAELNSLQDIYDYLEFKYANEINEMFINHTGKTGKKHLKNSSYEKFKASPLYQAVSDIGISAEDVGENISSQHQIHPPVDHPSSKPVEVIESILNANSGDLQVFTSNTKLAIDTVQKYYSLELSKNTKIREKVRSDFSKYYLADVVLTAKGKKEIQKGSLYEDIKYAINRTPMHFRRDPDVFLKMVEAESLNLLSVKLHMSSQAQYIEHLFQIALETTNTSDIAIEWNNFRKLAFNQAMDKIFQDISQEVKDNLTKNCQKLVAKTVRHKFMTKLDQAPFIPNVRDPKIPKILSLTCGQGRFGADAIIAVYVNRKGDFIRDYKIVDNPFDKTNPEKFEDTLDNIIQSCQPNAIGINGPNPKTQKFYKRLQEVLHKKQIVDSRGHTIPIIYVEDEVAIRYQNSERAAQEFPNKPPLVKYCIALARYMHSPLLEYANLTSEEVRSLSIHPHQNLLSSEQLSWALETAFVDIVNLVSVEVNKATDNNYYASALKYISGFGKRKAIDFLQSLQRLNEPLLARQQLITHNILHKTIFMNSAGFLYISWNEKRQKYEDLEHDQLDSTRIHPEDYHLATKVAADALEYDPDTIAEKEEQGTMSEFIELLREDPDRRAKLESLNLESYAEELEKNTGLRKLNNLNTIVLELLDGFEELRNDFHPLQGDEIFQSLTGESEKTFFKGSIIPVRVERFWHNDIICTTNSEVECVVNAQRHAGAQLRRPANEIYEIGKTYPAKVIYIDYANITAEVSLLDHDVKQQYVPISYSKDPSIWDLKQELEDAEEERKLMMAEARAKRTHRVINHPYYFPFNGRQAEDYLRSKERGEFVIRQSSRGDDHLVITWKLDKDLFQHIDIQELEKENPLALGKVLIVDNQKYNDLDQIIVEYLQNKVRLLNEMTSSEKFKSGTKKDVVKFIEDYSRVNPNKSVYYFSLNHDNPGWFYLMFKINANSKLYTWNVKLTNTGYFLVNYNYPSVIQLCNGFKTLLKSNSSKNRMNNYR
chain 2: MSTADQEQPKVVEATPEDGTASSQKSTINAENENTKQNQSMEPQETSKGTSNDTKDPDNGEKNEEAAIDENSNVEAAERKRKHISTDFSDDDLEKEEHNDQSLQPTVENRASKDRDSSATPSSRQELEEKLDRILKKPKVRRTRRDEDDLEQYLDEKILRLKDEMNIAAQLDIDTLNKRIETGDTSLIAMQKVKLLPKVVSVLSKANLADTILDNNLLQSVRIWLEPLPDGSLPSFEIQKSLFAALNDLPVKTEHLKESGLGRVVIFYTKSKRVEAQLARLAEKLIAEWTRPIIGASDNYRDKRIMQLEFDSEKLRKKSVMDSAKNRKKKSKSGEDPTSRGSSVQTLYEQAAARRNRAAAPAQTTTDYKYAPVSNLSAVPTNARAVGVGSTLNNSEMYKRLTSRLNKKHK
B2: Spn1 (wild type) [S. cerevisiae (endogenous in strain S288c)] / Spt6-3XFLAG (wild type) [S. cerevisiae (endogenous in strain S288c)] (parent)
chain 1: B1 chain 2
chain 2: B1 chain 1

In the first experiment the parent is B1. Kind of experiment: Spt6-3XFLAG affinity purification with quantitative mass spectrometry. The note with it: shift to non-permissive temperature, point at -log10 p-value about 3.5, read off a plot.
chain 1 F249K: the screen value (log2 fold-change) is -4.2.

The next experiment covers variants of B2. Described as above. The conditions noted are these: with Spt6-3XFLAG (wild type) [S. cerevisiae (endogenous in strain S288c)]; shift to non-permissive temperature; point at -log10 p-value about 3.4; read off a plot.
Regarding chain 1 R263D, the screen value (log2 fold-change) is -4.

Still in this experiment, the particulars now being: with Spt6-3XFLAG (wild type) [S. cerevisiae (endogenous in strain S288c)]; shift to non-permissive temperature; point at -log10 p-value about 3.5; read off a plot.
Regarding chain 1 F267E, the screen value (log2 fold-change) is -4.3.

The values above are taken from PMC12053661.
